Source: patent US20250289897A1, “LEPTIN RECEPTOR AGONISTIC ANTIBODY AS MONO OR COMBO THERAPIES TO TREAT OBESITY” (ELI LILLY AND COMPANY, priority 2024, published 2025)

How the values were obtained:
cyno-LEPR = test: STAT3-luciferase reporter assay in HEK293-STAT3Luc-cmLepR2 cells; format: cell-based, Macaca fascicularis
Description: (§1) LEPR is a cell surface single-pass transmembrane receptor. Activation of LEPR leads to phosphorylation of intracellular STAT3 (pSTAT3) and subsequent target gene transcription. To measure LEPR activation by anti-LEPR antibodies in the present disclosure, five independent STAT-luciferase reporter cell lines were established by introducing DNA plasmids encoding full-length LEPR of different species and STAT3-luciferase reporter gene into HEK293 cells (Table 4). […]
(§2) Before plating the cells for luciferase assays, the poly-D-Lysine coated 96-well plates (Corning Inc, #354651) were rinsed once with phosphate buffered solution (PBS). […] Cell lysing and One-Glo luciferase substrate solution (Promega, #E6120) were then added to each well, and relative luciferase units (RLUs) were measured on a ClarioStar plate reader. For each reporter cell line, positive control LEPR activation was calculated as the average RLUs stimulated by 20 nM recombinant human leptin protein (SEQ ID NO:27) minus the average RLUs of unstimulated cells and was set as maximum LEPR activation (100%). […]

canine-LEPR = test: STAT3-luciferase reporter assay in HEK293-STAT3Luc-dLepR7 cells; format: cell-based, Canis lupus
Description: as §1, §2

human LEPR [1] = molecular target: T1, human LEPR (Homo sapiens, UniProt P48357); test: STAT3-luciferase reporter assay in HEK293-STAT3Luc-hLepR1 cells; format: cell-based
T1 construct: introducing DNA plasmids encoding full-length LEPR of different species and STAT3-luciferase reporter gene into HEK293 cells; expressed in transfected cells; host or cells: HEK293 (HEK293-STAT3Luc-hLepR1)
T1 sequence (P48357 22-1165): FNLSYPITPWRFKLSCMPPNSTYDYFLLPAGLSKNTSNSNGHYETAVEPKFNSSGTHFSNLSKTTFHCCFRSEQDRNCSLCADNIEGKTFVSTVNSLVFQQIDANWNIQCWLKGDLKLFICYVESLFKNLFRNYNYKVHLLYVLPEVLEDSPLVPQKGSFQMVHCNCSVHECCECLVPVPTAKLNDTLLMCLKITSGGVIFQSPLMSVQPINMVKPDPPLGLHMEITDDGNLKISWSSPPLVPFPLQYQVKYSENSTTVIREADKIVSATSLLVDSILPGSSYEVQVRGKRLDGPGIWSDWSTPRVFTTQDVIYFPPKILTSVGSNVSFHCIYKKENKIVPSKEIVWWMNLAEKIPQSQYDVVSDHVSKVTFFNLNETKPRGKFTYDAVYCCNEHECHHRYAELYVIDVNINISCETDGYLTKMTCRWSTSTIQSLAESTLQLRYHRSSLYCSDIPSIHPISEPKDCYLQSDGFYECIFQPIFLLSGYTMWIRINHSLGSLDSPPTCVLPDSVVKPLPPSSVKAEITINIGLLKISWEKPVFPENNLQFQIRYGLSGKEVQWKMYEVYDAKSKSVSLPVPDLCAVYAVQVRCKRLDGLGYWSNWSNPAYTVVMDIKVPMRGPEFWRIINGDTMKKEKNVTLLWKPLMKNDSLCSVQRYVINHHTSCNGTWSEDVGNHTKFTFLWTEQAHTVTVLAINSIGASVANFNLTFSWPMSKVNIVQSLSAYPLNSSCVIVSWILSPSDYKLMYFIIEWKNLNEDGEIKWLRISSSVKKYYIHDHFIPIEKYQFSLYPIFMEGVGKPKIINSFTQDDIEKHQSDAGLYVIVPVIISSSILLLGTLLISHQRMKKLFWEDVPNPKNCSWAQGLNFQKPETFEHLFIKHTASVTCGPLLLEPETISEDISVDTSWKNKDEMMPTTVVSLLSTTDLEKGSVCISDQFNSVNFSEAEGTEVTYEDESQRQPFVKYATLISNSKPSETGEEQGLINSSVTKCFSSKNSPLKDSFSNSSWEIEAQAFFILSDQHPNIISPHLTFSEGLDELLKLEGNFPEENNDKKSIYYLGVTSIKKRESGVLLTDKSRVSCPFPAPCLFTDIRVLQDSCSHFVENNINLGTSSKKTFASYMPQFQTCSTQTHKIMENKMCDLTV
Description: as §1, §2

human LEPR [2] = molecular target: T1, human LEPR; test: pERK induction (AlphaLISA p-ERK1/2) in HEK293-STAT3Luc-hLepR1 cells; format: cell-based
Method: Antibodies were tested for the ability to induce phosphorylation of extracellular-signal-related kinase (pERK) in HEK293-STAT3Luc-hLepR1 cells. To measure pERK induction, cells were first cultured overnight at 37° C. in 96-well plate with DMEM medium supplemented with 10% FBS. On day 2, medium was removed, cells were washed in serum-free DMEM and incubated for an additional 24-hour in serum-free DMEM. On day 3, medium was removed and 1:4 series dilutions of antibodies A, B, and C with top concentration of 200nM in serum-free DMEM were added to the cells for 15 minutes. Testing was run in duplicates. Recombinant human leptin protein (SEQ ID NO:27) was used as a positive control in this assay. An IgGI with Fc modifications to ablate binding to Fcγ receptors was used as a negative control (IgG isotype control). Phospho-ERK1/2 was assessed in the whole cell lysate by measuring the amplified luminescence with AlphaLISA SureFire Ultra p-ERK1/2 (Thr202/Tyr204) kit (PerkinElmer, #ALSU-PERK-A-HV). Data was calculated using 4 parameters sigmoidal fit of the data (SigmaPlot software). Results, expressed in Table 12 are averaged EC50 of two independent experiments.

[3] = STAT3-luciferase, 20 hours, read-out: EC50 (nM) ± SEM
[4] = top of fitted curve vs response to 20 nM recombinant human leptin

EC50 (cyno-LEPR; [3]): 0.674 ± 0.11 nM | EC50 (canine-LEPR; [3]): 0.582 ± 0.172 nM | EC50 (human LEPR [1]; [3]): 0.0491 ± 0.0044 nM | Agonism (%) ± SEM (human LEPR [1]; [4]): 105.83% | Baseline RLU (human LEPR [2]; pERK AlphaLISA): 29762.5 RLU | Maximum RLU (human LEPR [2]; pERK AlphaLISA): 137565 RLU | EC50 (human LEPR [2]; pERK, 15 minutes, average of two independent experiments, read-out: EC50 (nM) ± STDEV): 1.07 nM
Substance: human leptin: recombinant human leptin protein (SEQ ID NO:27), positive control
Agonism (%) ± SEM (cyno-LEPR; [4]): 106.34% | Agonism (%) ± SEM (canine-LEPR; [4]): 107.5%
